This is an account of results in patent publication US20110268755A1 (HEALTH RESEARCH, published 2011).

One assay deals with T1, H2-K^b (mouse, UniProt P01887 21-119; P01901 22-369, limits assumed).
T1 construct: whole, on cells; also called murine MHC class I
T1 sequence (MHC heavy, looked up): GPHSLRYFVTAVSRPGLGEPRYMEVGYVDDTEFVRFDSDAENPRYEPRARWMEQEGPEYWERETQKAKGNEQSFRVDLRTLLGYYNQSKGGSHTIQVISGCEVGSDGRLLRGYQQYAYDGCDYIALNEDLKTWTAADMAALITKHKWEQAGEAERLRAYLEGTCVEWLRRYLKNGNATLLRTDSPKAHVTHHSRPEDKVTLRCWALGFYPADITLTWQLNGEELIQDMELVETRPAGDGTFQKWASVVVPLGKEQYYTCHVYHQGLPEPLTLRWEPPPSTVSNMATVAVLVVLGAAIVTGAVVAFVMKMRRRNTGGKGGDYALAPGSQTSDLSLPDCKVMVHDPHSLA
T1 sequence (b2m, looked up): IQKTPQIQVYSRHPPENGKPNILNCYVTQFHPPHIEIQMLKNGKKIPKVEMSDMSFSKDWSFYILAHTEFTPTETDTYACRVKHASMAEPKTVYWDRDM
The experiment in a line: H2-K^b upregulation on RMA-S cells, 100 µM peptide, 37° C. The method, then:
To obtain the data presented in FIG. 3, survivin peptide epitopes were used in conventional MHC class I peptide binding assays. Mean fluorescence in FIG. 3 represents binding of SVN peptides to H2-K^b. Upregulation of H2-K^b molecules on the surface of murine RMA-S cells which are deficient in the expression of surface MHC class I molecules was used to determine actual survivin peptide binding in vitro. Data presented in FIG. 3 represent the binding of 100 μM peptide at 37° C.

Assay [1] has as its target T2, HLA-A*0201 (human).
T2 construct: also called human MHC class I; MHC I
Briefly: competitive peptide binding assay, displacement of fluorescently labeled HPV18-27 from HLA-A*0201. The source says: To obtain the data summarized in FIGS. 4A and 4B, survivin peptide epitopes were used in MHC class I peptide competitive displacement assays. […] Positive control peptides (Flu & gp100) represent known immunogenic MHC class I ligands. Data represent mean fluorescence±S.E.M. of triplicate samples.

In assay [2] the target is T2, HLA-A*0201. The experiment in a line: survivin/MHC Class I-specific HLA-A*0201 pentamer binding.

As to CFFCFKEL (also called SVN 57-64 wt) [SVN-57-64], the binding result with H2-K^b is listed as “binds”.

For the molecule MFFCFKEL [SVN-57-64/M57], in the assay with H2-K^b, the binding result is reported as “binds”.

For the molecule TLGEFLKL [SVN97-104], the binding result in the assay with H2-K^b is “binds”.

In the case of DLAQCFFCFKELEGW [wild type SVN53-67], in the assay with HLA-A*0201 [1], the binding result is “binds”.

B1: SVN53-67/M57 (peptide)
peptide: DLAQMFFCFKELEGW
notes: also called Survivin M57; Survivin-53-67/57M
Regarding B1, the “fold stronger binding than wild type SVN53-67” value with HLA-A*0201 [1] was ~12 fold.

On to QCFFCFKEL [wild type SVN56-64], for which the binding result with HLA-A*0201 [2] is on record as “binds”.

Regarding QMFFCFKEL (also called core peptide SVN56-64/M57) [SVN56-64/M57], in the assay with HLA-A*0201 [2], the “fold stronger binding than wild type SVN56-64” value was ~73 fold.
